Paper PMC10948894, “Cryo-EM structures of type IV pili complexed with nanobodies reveal immune escape mechanisms” (Nature Communications, 2024)
Changes are numbered by the printed parent chain. In names and notes the source's numbering stands.

T1: type IV pili of the N. meningitidis 8013 pglAON* strain (SB pilin with the GATDH-Gal double sugar on S63) (Neisseria meningitidis 8013 (serogroup …, strain, GATDH with a second sugar (galactose in position 3) on serine 63))
T1 construct: numbers count on: the mature protein; also called GATDH-GLA; GATDH-GAL variant
T1 chain: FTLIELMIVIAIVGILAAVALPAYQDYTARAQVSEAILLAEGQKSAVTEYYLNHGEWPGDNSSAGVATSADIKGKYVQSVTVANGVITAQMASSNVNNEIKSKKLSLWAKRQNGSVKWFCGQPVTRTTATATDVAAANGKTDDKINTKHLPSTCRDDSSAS

B1: F10 nanobody (VHH)
VHH: QLQLVESGGGLVQPGGSLRLSCAASGFTLDQYAIGWFRQAPGKEREGVSCISSRGGATNYAHSVKGRFTISRDNAKNTVYLQMNSLKPEDTAVYYCAAGVYTIVTGTGPEDGMDYWGKGTLVTVSS
B2: C24 nanobody (VHH)
VHH: QLQLVESGGGLVQPGGSLRLSCASSGFRSDYYAIVWFRQAPGKEREGVSCISTSGKTTIYADSVKGRFTISRDNAKNTVYLQMNSLKPEDTAVYYCAADFRGSRLSDVCSYSSMDYWGKGTLATVSS
B3: C24_S112-114G nanobody (VHH)
VHH: B2 VHH with S110G, S112G
notes: as the chain of m8 (C24) with the two stated changes; also called C24 S112G S114G double mutant; source: E. coli BL21 (DE3)/pLysS (plasmid pET26b-C24 mutated), purified; not shown: His tag, C-terminal, kept

Assays:
[1] = target: type IV pili of N. meningitidis 8013, SB sequence type pilin PilE with GATDH on S63 and G3P on S69 (Neisseria meningitidis)
[2] = target: type IV pili of N. meningitidis 8013, SB sequence type pilin PilE with GATDH on S63 and G3P on S69 (Neisseria meningitidis); test: cryo-EM structure; purified pili 10 µg/ml with nanobody 50 µg/ml, vitrified at 4 °C; helical refinement
[3] = target: T1, type IV pili of the N. meningitidis …; test: immunostaining of cells or tissue; as a1 but nanobody 5 µg/ml and anti-His tag 17.5 µg/ml (experiments with C24_S112-114G, Fig. 7f and g); settings: one partner purified

Binder	inhibition of type IV pili-dependent bacterial auto-aggregation (blocks the pilus-pilus interaction, m1 with m1); indicated amounts of nanobody, Fig. 3c [1] [µg/mL]	stoichiometry N [2]	binding result [3]
B1	5	1	
B2	5	1	
B3			binds
